Drawing on the supplement of paper PMC10567573, this text covers protein stability index for 72 sequences.

± gives the standard deviation.

The nature of the data set: protein stability index of a GFP-peptide fusion (GPS, HEK-293T) (PSI 1-6); higher = more stable.
Setting [1] is: treatment: DMSO, c terminus: a fixed tail appended.
Setting [2] is: treatment: MLN4924 1 uM, 8 h, c terminus: a fixed tail appended.
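Further: 24-mer peptide tiles fused after GFP, lentivirally expressed, FACS-sorted into six equal bins by GFP/DsRed ratio, decoded by Illumina sequencing, PSI is the read-weighted mean bin number.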

With NKPMLADVVFEIQGTTVPAHRAIL [RHOBTB3], the protein stability index reads like this: under setting [1], 2.3 ± 0.27; under setting [2], 2.29 ± 0.2.

For NLGRMIDWVPVESLLRPLNSLAAL [ZER1], the protein stability index by setting is: under setting [1], 1.72 ± 0.18; under setting [2], 2.28 ± 0.66.

In the case of NLKFITDPFVCRLRHLSPTPSEEH [OR4A15], the protein stability index by setting is: under setting [1], 2.54 ± 0.11; under setting [2], 3 ± 0.2.

In the case of NLLDVYSSQGVATPAITVSNSCPA [TFE3], the protein stability index by setting is: under setting [1], 3.4 ± 0.15; under setting [2], 3.34 ± 0.22.

Regarding NLRVLVDCILRDTSEDLRLQCDAV [TEKT4], the protein stability index is, setting by setting: under setting [1], 2.64 ± 0.57; under setting [2], 2.46 ± 0.29.

On to NMPKDHPVSCCLGLLLESLVPFIV [DYNC2LI1], for which the protein stability index is 2.53 ± 0.23 under setting [1] and 2.57 ± 0.5 under setting [2].

As to NNCAFLESSAKSKINVNEIFYDLV [RAP1B], the protein stability index amounted to 2.44 ± 0.45 under setting [1] and 2.07 ± 0.34 under setting [2].

Turning to NRDSYFYAAIVAVVAVHVVLALFV [VMA21], the protein stability index is 2.3 ± 0.16 under setting [1] and 2 ± 0.2 under setting [2].

NRFEVTLEKSNKNFSKKIQQIHVV [VPS39] yielded a protein stability index under setting [1] of 2.36 ± 0.4 and a protein stability index under setting [2] of 2.42 ± 0.22.

NRRRFRVRQPILQYRWDMMHRLGE [BEX1]: the protein stability index by setting is: under setting [1], 2.31 ± 0.15; under setting [2], 2.17 ± 0.29.

As to NRVWSISQEPDPVQRLQAYTATEQ [TRIM14], the protein stability index stood at 4.09 ± 0.31 under setting [1] and 3.97 ± 0.31 under setting [2].

Take NSQALLLHSSILTCTLLLLYSLAP [MFSD9]: the protein stability index was found to be 3.23 ± 0.12 under setting [1] and 3.08 ± 0.52 under setting [2].

NTHAKSILNSMNSLRKSNTLCDVT [KLHL12]: the protein stability index is, setting by setting: under setting [1], 2.82 ± 0.4; under setting [2], 3.27 ± 0.43.

Turning to NTTVIPNGSMAMGTVPGQAPRLAV [LYSMD4], the protein stability index is, setting by setting: under setting [1], 3.69 ± 0.32; under setting [2], 3.5 ± 0.23.

Consider NVISELNIEDYFSHHLAVYNSPQF [FBXO39], for which the protein stability index is, setting by setting: under setting [1], 2.31 ± 0.29; under setting [2], 2.32 ± 0.34.

NVPNPRIKLIDFGIAHKIEAGNEF [DAPK3]: the protein stability index is 3.2 ± 0.087 under setting [1] and 3.1 ± 0.35 under setting [2].

Turning to NYEKEEEFLTNELSRKLMQLQHEK [CCDC6], the protein stability index runs as follows: under setting [1], 4.43 ± 0.15; under setting [2], 4.55 ± 0.38.

For PAARRCHSCVQIKNDVFICGGYNG [KLHDC10], the protein stability index came to 2.29 ± 0.42 under setting [1] and 2.43 ± 0.2 under setting [2].

With PAATFGADDLVLTLSNPQMSLEGT [ELF3], the protein stability index is 4.24 ± 0.3 under setting [1] and 4.32 ± 0.23 under setting [2].

On to PAFKSMEVANFYYEADCLAAAYGG [CEBPB], for which the protein stability index reads like this: under setting [1], 2.83 ± 0.25; under setting [2], 2.96 ± 0.13.

As for PAMQRYVKRLHEVGRTEPELLVAH [HMOX1], the protein stability index under setting [1] is 3.1 ± 0.29 and the protein stability index under setting [2] was determined as 3.37 ± 0.29.

Consider PAMSPYWRTWMTITQSWQVSVRVQ [C22orf15], for which the protein stability index under setting [1] worked out at 2.51 ± 0.41 and the protein stability index under setting [2] was 2.74 ± 0.3.

In the case of PAPQVGTQIRTITEEIRDGKVISS [KRT36], the protein stability index is, setting by setting: under setting [1], 5.08 ± 0.2; under setting [2], 5.17 ± 0.23.

PASEKKPVPPSEGKSRLSPAGEMK [BCL2L13]: the protein stability index by setting is: under setting [1], 5.28 ± 0.19; under setting [2], 5.27 ± 0.084.

Regarding PAVPFAPHFLQGGPFPLPYTAPGG [TBX6], the protein stability index is 2.95 ± 0.097 under setting [1] and 3.03 ± 0.14 under setting [2].

As to PCIRNVTSPTRQHHVEREKDHSSS [BTBD10], the protein stability index runs as follows: under setting [1], 5.23 ± 0.14; under setting [2], 5.02 ± 0.42.

Turning to PDAWCDLSKFDLPEEPSAEDSINN [MYBL2], the protein stability index runs as follows: under setting [1], 5.52 ± 0.12; under setting [2], 5.42 ± 0.31.

Consider PECRQVLKTSRKDVKDKETTENEN [CHGB], for which the protein stability index came out at 5.54 ± 0.3 under setting [1] and 5.45 ± 0.37 under setting [2].

As to PEEMATYLRYVRRLDFFEKPDYEY [CSNK1G1], the protein stability index reads like this: under setting [1], 2.34 ± 0.26; under setting [2], 2.26 ± 0.55.

As to PEGVNKLKISPVTLKEAYVQKLVK [TENT5C], the protein stability index reads like this: under setting [1], 2.94 ± 0.35; under setting [2], 2.93 ± 0.41.

Take PEIDMFLNVATFLDPRYKRLPFLS [ZBED1]: the protein stability index under setting [1] stood at 2.42 ± 0.43 and the protein stability index under setting [2] came out at 2.25 ± 0.48.

PENVEDSGLDSPSHAAPGPSPDSW [FCHO1] returned a protein stability index under setting [1] of 5.37 ± 0.13 and a protein stability index under setting [2] of 5.46 ± 0.2.

On to PGAFIAGVPVQPVLIRYPNSLDTT [LPCAT4], for which the protein stability index runs as follows: under setting [1], 2.72 ± 0.19; under setting [2], 2.75 ± 0.36.

On to PGDCFLLLVLLLYAPVGFCLLVLR [AUP1], for which the protein stability index stood at 3.1 ± 0.44 under setting [1] and 3.13 ± 0.35 under setting [2].

On to PGDMKTKMELLILETQAQVCQALA [CPOX], for which the protein stability index was 2.31 ± 0.26 under setting [1] and 2.37 ± 0.34 under setting [2].

On to PGEGLLISWAFTDRPDLSLTVLPK [C2CD2L], for which the protein stability index came to 2.64 ± 0.48 under setting [1] and 2.37 ± 0.44 under setting [2].

As to PGGPRNLKPTASKLGAPLSGLQGL [PDLIM4], the protein stability index turned out to be 3.54 ± 0.21 under setting [1] and 3.54 ± 0.053 under setting [2].

Turning to PGLPPVPGAPGMPPGIPPLMPGVP [ZNF207], the protein stability index turned out to be 4.41 ± 0.2 under setting [1] and 4.5 ± 0.24 under setting [2].

Consider PHDFIEHFLSKMPEAEENKQIIRK [CCND1], for which the protein stability index turned out to be 3.96 ± 0.21 under setting [1] and 4.27 ± 0.22 under setting [2].

Sequence PIGELYGLSESSGPHTISNQNNYR [ACSBG2] yielded a protein stability index under setting [1] of 3.91 ± 0.31 and a protein stability index under setting [2] of 4.07 ± 0.57.

As to PIIVVPDPPSSSEECPAHLLEDPL [RHOBTB2], the protein stability index reads like this: under setting [1], 5.2 ± 0.1; under setting [2], 4.81 ± 0.3.

Regarding PILQGQIDALLEFDVHPNELTNGV [SNAP91], the protein stability index runs as follows: under setting [1], 3.42 ± 0.29; under setting [2], 3.4 ± 0.45.

Consider PISLQATPATPATLSASSSAGGSR [TFE3], for which the protein stability index was found to be 4.51 ± 0.18 under setting [1] and 4.87 ± 0.11 under setting [2].

Consider PKMRSKEQILELLVLEQFLTILPT [ZNF449], for which the protein stability index runs as follows: under setting [1], 3.07 ± 0.96; under setting [2], 3.36 ± 0.73.

For PKRRMRYFDPLRNEYFFDRNRPSF [KCNA3], the protein stability index worked out at 2.37 ± 0.26 under setting [1] and 2.6 ± 0.65 under setting [2].

As to PLEYQFKSQIMSLSHSPQEDWVLL [TLE6], the protein stability index amounted to 2.26 ± 0.29 under setting [1] and 2.37 ± 0.4 under setting [2].

Consider PLFNPMIYSLRNKEFKSALCKIVR [OR10K2], for which the protein stability index by setting is: under setting [1], 2.32 ± 0.071; under setting [2], 1.9 ± 0.5.

Turning to PLGLEADMWSIGVITYILLSGASP [DAPK3], the protein stability index turned out to be 2.52 ± 1.4 under setting [1] and 2.27 ± 0.23 under setting [2].

Sequence PLLQSIHQLDFVQVKASSPVPATP [TRIM9] had a protein stability index under setting [1] of 3.02 ± 0.18 and a protein stability index under setting [2] of 3.2 ± 0.21.

PLPAGVPPLEDFEVLDGVEDAEGE [FKBP8] had a protein stability index under setting [1] of 5.64 ± 0.26 and a protein stability index under setting [2] of 5.44 ± 0.46.

For the sequence PNFMKVIPAVSISYVVYENLKITL [SLC25A25], the protein stability index by setting is: under setting [1], 3.2 ± 0.4; under setting [2], 3.46 ± 0.52.

The sequence PNINKISMQAVLDYLYTKQLSPNL [RHOBTB1] showed a protein stability index under setting [1] of 2.25 ± 0.68 and a protein stability index under setting [2] of 2.16 ± 0.31.

As to PNVYPAAPQGGMAALNMSLGMVTP [ADD1], the protein stability index reads like this: under setting [1], 3.26 ± 0.28; under setting [2], 3.25 ± 0.21.

The sequence PPASPPADGSPPLLPPGEPPLLGT [ANKRD40] yielded a protein stability index under setting [1] of 5.17 ± 0.26 and a protein stability index under setting [2] of 5.42 ± 0.14.

As for PPKAPPPVIKIPECPSMGTNEAAC [RHOBTB1], the protein stability index is, setting by setting: under setting [1], 4.71 ± 0.23; under setting [2], 4.86 ± 0.2.

In the case of PPMGKAFQELAGKELCAMSEEQFR [SPDEF], the protein stability index reads like this: under setting [1], 4.3 ± 0.25; under setting [2], 4.4 ± 0.34.

For PQQGFFSSFFTCNQKCQLRLLKTL [ATP23], the protein stability index under setting [1] is 2.36 ± 0.4 and the protein stability index under setting [2] came to 2.13 ± 0.3.

For PQVRDWSHYFKIIEDLRAQIFANT [KRT18], the protein stability index turned out to be 2.52 ± 0.36 under setting [1] and 2.64 ± 0.46 under setting [2].

As for PQVSAHHRSQESLTSQESEDTYL [TBC1D10A], the protein stability index is, setting by setting: (treatment: DMSO, c terminus: native) 5.4 ± 0.18; (treatment: MLN4924 1 uM, 8 h, c terminus: native) 5.51 ± 0.16.

Consider PRAVLKPRRVCVGGKRRRDDISVD [PPP2R2C], for which the protein stability index runs as follows: under setting [1], 4.02 ± 0.18; under setting [2], 4.25 ± 0.39.

As to PRHQGHRVQPVKDTAHDFRAKCRN [TRIM35], the protein stability index amounted to 4.57 ± 0.15 under setting [1] and 4.65 ± 0.24 under setting [2].

Regarding PRICQRNLMSLLMAVRPSLPESGL [FANCE], the protein stability index by setting is: under setting [1], 2.4 ± 0.6; under setting [2], 2.21 ± 0.27.

In the case of PRRSLSISKNKKKASNSIISCFNN [FAN1], the protein stability index is 2.79 ± 0.13 under setting [1] and 3.75 ± 0.29 under setting [2].

As for PSAPEALHSLPGVSLSLENRELWK [TBX6], the protein stability index by setting is: under setting [1], 3.94 ± 0.19; under setting [2], 3.96 ± 0.33.

On to PSGFKHVSHVGWDPQNGFDVNNLD [WAS], for which the protein stability index runs as follows: under setting [1], 3.83 ± 0.24; under setting [2], 3.79 ± 0.58.

In the case of PSIMPQKHWVYVKRGGNCPAPAPL [ZBTB22], the protein stability index is 2.85 ± 0.19 under setting [1] and 2.81 ± 0.32 under setting [2].

Consider PSPQLDTQQEIKLCQKSNDISIHH [WDR41], for which the protein stability index is, setting by setting: under setting [1], 4.41 ± 0.51; under setting [2], 4.49 ± 0.05.

For the sequence PSTLLPTPEEQGELEPLKGNFDWE [FOXJ1], the protein stability index under setting [1] stood at 5.17 ± 0.068 and the protein stability index under setting [2] is 5.16 ± 0.29.

On to PTPIFAGGANDRWVRSVSFSHDGL [WSB1], for which the protein stability index turned out to be 2.61 ± 0.19 under setting [1] and 2.99 ± 0.64 under setting [2].

On to PVDAEALELHDYHDIIKHPMDLST [BRD3], for which the protein stability index came out at 4.63 ± 0.34 under setting [1] and 4.67 ± 0.32 under setting [2].

In the case of PVIKIPECPSMGTNEAACLLDNPL [RHOBTB1], the protein stability index was determined as 4.33 ± 0.16 under setting [1] and 4.41 ± 0.24 under setting [2].

Regarding PVKPVTFSTGIKMGQHISLAPIHK [MNAT1], the protein stability index is, setting by setting: under setting [1], 2.96 ± 0.34; under setting [2], 2.96 ± 0.32.
